Experimental data published in the supplement of paper PMC9170038.

System: MS2 coat protein
Test: apparent KD of MS2 coat protein; designed switch direction (-1 OFF switch, 1 ON switch): -1; higher = weaker reporter binding
Procedure, shortened: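 Designed RNA switches sharing common flanks were transcribed on Illumina chips by stalled E. coli RNA polymerase. They were titrated with SNAP-549-labelled MS2 coat protein, from 0.7 or 1.5 nM doubling to 3 µM, in Tris-HCl pH 7.5 buffer with KCl, MgCl2, BSA, DTT, tRNA and Tween-20. Titrations ran without input, with 200 uM small-molecule ligand, or with an oligonucleotide input. The apparent KD of each design is the median over its clusters, after curve-fitting of normalised cluster fluorescence.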

[1] = input ligand: microRNA oligo, concentration not stated
[2] = Eterna round: R95, input ligand: FMN 200 uM
[3] = Eterna round: R95, input ligand: microRNA oligo, concentration not stated
[4] = Eterna round: R95, input ligand: none

Row | Sequence | apparent KD of MS2 coat protein (input ligand: FMN 200 uM) [nM] | apparent KD of MS2 coat protein [1] [nM] | apparent KD of MS2 coat protein (input ligand: none) [nM] | apparent KD of MS2 coat protein [2] [nM] | apparent KD of MS2 coat protein [3] [nM] | apparent KD of MS2 coat protein [4] [nM]
1 | GUUGUUUAUGUAGGAUAUGCCUGGCGUGCCUUUGCAGAAGGACAUGAGGAUCACCCAUGUAUUGCGGUCUGCGUUCAGAUCGCU [salish99_ExNG1_r4_022] (Eterna round: R96, puzzle: Exclusion NG 1) | 45.6 | 26.2 | 34.8 |  |  | 
2 | GUUUAGUGAGGAUAUGUGGCUUCGAUCGUGCGAAGGAGGCUACAGAAGGCACAUGAGGAUCACCCAUGUUCCUC [salish99_ex4_r4_302] (Eterna round: R97, puzzle: Exclusion 4) | 401 |  | 37.1 |  |  | 
3 | GUUUCACAUGAGGAUCACCCAUGUGAGGAUAUAAAUUUGUUAACCGUAGUUAAUAGAUUUAGAAGGCGCGUGAU [JR_Exc1_Sub001] (Eterna round: R97, puzzle: Exclusion 1) | 68.2 |  | 63.1 |  |  | 
4 | GUUUGCACGCUGCGGUCCUACAUGAGGAUCACCCAUGUGGUCUGGUGGCGUGGGUCGCCGGACUUGGCUCGUCUUGA [salish99_S_TOV1_R5_038] (Eterna round: R97, puzzle: Sensor, turn-off variant 1) | 17.2 |  | 16.9 |  |  | 
5 | GUUUGCAGACGGAGAUCCUACAUGAGGAUCACCCAUGUCUCACUAGCUUUUUGCUCGUCUUAUCCUCCUCUGUUCUC [Elimod 27 - Jieux - Sensor, turn-off variant 1] (Eterna round: R97, puzzle: Sensor, turn-off variant 1) | 260 |  | 303 |  |  | 
6 | GUUUUCAGACGGAGAUCCGACAUGAGGAUCACCCAUGUCUCACAAGCUUUUUGCUCGUCUUAUACUCCUCUGUUCUC [Elimod 43 - Jieux - Sensor, turn-off variant 1] (Eterna round: R97, puzzle: Sensor, turn-off variant 1) | 16.9 |  | 15.9 |  |  | 
7 | GUUUUCAGACGGAGAUCCUACAUGAGGAUCACCCAUGUCUCUCUUGUUCCUUGCUCGUCUUUUCCUCCUCUGUUCUC [Elimod 33 - Jieux - Sensor, turn-off variant 1] (Eterna round: R97, puzzle: Sensor, turn-off variant 1) | 657 |  | 847 |  |  | 
8 | UAAAAGAAGGUCAGGAUAUGUAGUGAGCAAUCAGGACAGAAGGGACAUGAGGAUCACCCAUGUAACAGGGUAAA [Eninares] (puzzle: Brourd's mod of Exclusion 4) |  |  |  | 104 | 44.6 | 43.1
9 | UAAAAGCUAGGAUAUACAUGAGGAUCACCCAUGUCAACCACACGGAUGCGCCGAGCAUGUAGAAGGAGCACCGG [Soora] (puzzle: Exclusion 3) |  |  |  |  | 17 | 
10 | UAAAAGUCAGGAUAUACAUGAGGAUCACCCAUGUAAAAUUUUAAUUUAAUUUUAAGGUGUAGAAGGGACAAUUU [Ex3 #1] (Eterna round: R97, puzzle: Exclusion 3) | 32.5 |  | 34.9 |  |  | 
11 | UAAACUUGCUUCCGAUCCUACAUGAGGAUCACCCAUGUGCUCGUCUUGUAUCGUACUGUGACGUUAGUCACGGUACG [mod my first] (Eterna round: R97, puzzle: Sensor, turn-off variant 1) | 477 |  | 464 |  |  | 
12 | UAACCCGCGCGAGGAUAUCACAUGAGGAUCACCCAUGUGGCACUCCGUCACCGGGCAGUCCCGAGUGAGAAGGUGCAGGCGGGA [Bireisen] (Eterna round: R96, puzzle: Exclusion NG 2) | 62.8 | 22.1 | 26 |  |  | 
13 | UAACGGGUUUCUUCGUUUACAACAUGAGGAUCACCCAUGUUUGAGGAUAUCCACUAAGCUCUUCAGGAGAAGGCAAACAUAAUG [Teanarxe] (Eterna round: R96, puzzle: Exclusion NG 3) | 20.6 | 12.2 | 15.4 |  |  | 
14 | UAACUACAUGAGGAUCACCCAUGUCAGGAUAUGCCGUUAAAUUAACAUCAACAUACGGGUAGAAGGGACAACGU [1st #3] (Eterna round: R97, puzzle: Exclusion 1) | 31.5 |  | 29.8 |  |  | 
15 | UAAUACAAGCAAAGAUCCUACAUGAGGAUCACCCAUGUGUUCGUCUUAUAAAGUACUAUCACGAAAGUGAUAGUACA [Mat - Sensor v3 - turn-off var 1 - Eli Mod - D79] (puzzle: Sensor v3, turn-off variant 1) |  |  |  | 81.6 | 12.3 | 110
16 | UAAUGCAAGCAAAGAUUCUACAUGAGGAUCACCCAUGUGCUCGUCUUAUAAAGUACUAUCACGAAAGUGAUAGUACA [Mat - Sensor v3 - turn-off var 1 - Eli Mod - D96] (puzzle: Sensor v3, turn-off variant 1) |  |  |  | 25.7 | 75.7 | 27.1
17 | UAAUGUAUAUAGGAUAUCUAGCUGGUAACAGCUAGAGAAGGAUGUACAUGAGGAUCACCCAUGUAAAUCAGUGA [Ex6/14-B2] (Eterna round: R97, puzzle: Exclusion 6) | 186 |  | 41.6 |  |  | 

Row | Sequence | apparent KD of MS2 coat protein (input ligand: FMN 200 uM) [nM] | apparent KD of MS2 coat protein [1] [nM] | apparent KD of MS2 coat protein (input ligand: none) [nM] | apparent KD of MS2 coat protein [2] [nM] | apparent KD of MS2 coat protein [3] [nM] | apparent KD of MS2 coat protein [4] [nM]
18 | UAAUGUAUAUAGGAUAUCUAGCUGGUAACAGCUAGAGAAGGAUGUACAUGAGGAUCACCCAUGUAAAUCGAUCA [Ex6/11-A2] (Eterna round: R97, puzzle: Exclusion 6) | 83.3 |  | 24.4 |  |  | 
19 | UACACCACAUGAGGAUCAAACAUGAGGAUCACCCAUGUGUAGCAAGCUUUUUGCUCGUCUUAUAAAUAUGUGGUGUA [Electric Eye 7 - Jieux - Sensor, turn-off variant 1] (Eterna round: R97, puzzle: Sensor, turn-off variant 1) | 11.7 |  | 11.9 |  |  | 
20 | UACACCGCAUGAGGAUCAAACAUGAGGAUCACCCAUGUGUAGCAAGCUUUUUGCUCGUCUUAUAAAUAUGUGGUGUA [Electric Eye 9 - Jieux - Sensor, turn-off variant 1] (Eterna round: R97, puzzle: Sensor, turn-off variant 1) | 12.6 |  | 13 |  |  | 
21 | UACAUGAGGAUCACCCAUGUUUUGUCGUGUAUGGUACCCGUUUAGGAUAUCGUGUUAUUGGACCGCGAGAAGGAGAGUAUCAUU [Excl-NG3-LRO05] (Eterna round: R96, puzzle: Exclusion NG 3) | 24 | 30 | 31.6 |  |  | 
22 | UACAUGAGGAUCACCCAUGUUUUGUCGUGUAUGGUAUUUAUCUAGGAUAUCAAUUUAAUUAUUUAUGAGAAGGAGAAUAUUAAU [JMF's solution 17] (Eterna round: R96, puzzle: Exclusion NG 3) |  | 29.8 |  |  |  | 
23 | UACAUGAGGAUCACCCAUGUUUUGUCGUGUAUGGUAUUUAUCUAGGAUAUCAAUUUGUAUAUUUAUGAGAAGGAGAAUAUUAAU [JMF's solution 67] (Eterna round: R96, puzzle: Exclusion NG 3) |  | 30.7 |  |  |  | 
24 | UACAUGAGGAUCACCCAUGUUUUGUCGUGUAUGGUAUUUAUCUAGGAUAUCAUUUAAUUUAGUUAUGAGAAGGAGAAUAUUAAU [JMF's solution 85] (Eterna round: R96, puzzle: Exclusion NG 3) | 31.3 | 17 | 27.8 |  |  | 
25 | UACAUGAGGAUCACCCAUGUUUUGUCGUGUAUGGUAUUUAUCUAGGAUAUCAUUUUAUUUAGGUAUGAGAAGGAGAAUAUUAAU [JMF's solution 93] (Eterna round: R96, puzzle: Exclusion NG 3) |  | 23.9 |  |  |  | 
26 | UACCGGCGGACCGAAGCUUUUUGCUCGUCUUAUACUACAACAUGAGGAUCACCCAUGUGGUGGUGGUCCGUUGUAGU [JL ViennaUCT Bitein mod 4] (puzzle: Sensor v3, turn-off variant 2) |  |  |  | 20.2 | 15.7 | 13.5
27 | UACCUAAUGGGUGUUUCUCACAUGAGGAUCACCCAUGUCACUAGCUUUUUGCUCAUCUUAUCGAAACACCCUUAGUC [Birerage] (puzzle: Sensor v3, turn-off variant 1) |  |  |  | 21.3 | 10.2 | 20.8
28 | UACCUAUAGUAAGGAUAUCAUUGCGAUUAGCUAUGAGAAGGUACACAUGAGGAUCACCCAUGUCCUCCAAUUAACCGAAAGGUA [7th something] (Eterna round: R96, puzzle: Exclusion NG 1) | 318 | 170 | 178 |  |  | 
29 | UACCUGAGGCAAAGCUUUAGGUAUACAUGAGGAUCACCCAUGUAGGAUAUGGUAGGCUUUGCUUACCAGAAGGACAUGUUAAUU [Mat - Exclusion NG 3 - Mod of JL - D32] (Eterna round: R96, puzzle: Exclusion NG 3) | 161 | 30.4 | 39.6 |  |  | 
30 | UACGAAUUAGGAUAUGCAAUGGGCUCGCUUUCCUUCGAUAAACUUGAGGAUCACCCAAGUAGAAGGAAUUUGUA [Mod 37 - Jieux - Exclusion 2] (Eterna round: R97, puzzle: Exclusion 2) | 14.8 |  | 12.9 |  |  | 
31 | UACGAGUCAGGAUAUUGGGCAAUAGCAUUACGGAACGAUCACAAGAAGGGACAUGAGGAUCACCCAUGUUAUAU [Candy Rainbow 3] (puzzle: Exclusion 4) |  |  |  |  | 22.3 | 
32 | UACUGGACAGGAUAUGUUCUUGAGCACUUGAGGAUCACCCAAGUCAUCAAGAACUCAGGCACAGAAGGGUUUAUGC [salish99_ex5_r4_007] (Eterna round: R97, puzzle: Exclusion 5) | 19.1 |  | 14 |  |  | 
33 | UACUUCCGAGGAUAUACAUGAGGAUCACCCAUGUGCUUCAGCAUCGAAAGAUGCAUGGGUAGAAGGCGGUAGUU [LRO-Excl3-19] (puzzle: Exclusion 3) |  |  |  |  | 36.6 | 
